What is called EC50 is the concentration at which the effect is half-maximal.

Experimental findings from patent US20230295301A1 (SHANGHAI JUNSHI BIOSCIENCES, published 2023) are described below.

Assay [1] deals with T1, huCTLA-4 expressed on cells (human, UniProt P16410 36-223).
T1 construct: the construct in the cells is not described; also called HuCTLA-4-expressing CHO cells; huCTLA-4-expressing Jurkat effector cells
T1 sequence: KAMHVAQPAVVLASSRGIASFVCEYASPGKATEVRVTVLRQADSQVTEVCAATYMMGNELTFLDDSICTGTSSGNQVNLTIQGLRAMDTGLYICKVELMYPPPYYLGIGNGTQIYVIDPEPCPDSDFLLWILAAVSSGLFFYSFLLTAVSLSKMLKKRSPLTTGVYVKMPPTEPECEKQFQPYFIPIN
Kind of assay: FACS: huCTLA-4-expressing CHO cells, antibody 3-fold dilutions from 10 µg/mL, PE anti-human IgG; unit from the axis 'log(JS007 concentration (ng/mL))'. How it is done:
6.2 FACS Detection of Binding of Chimeric Antibodies to huCTLA-4-Expressing Cells HuCTLA-4-expressing cells (constructed in-house by Junmeng; CHO from ATCC) were co-incubated with each of the chimeric antibodies in Table 3 and the control antibody (ipilimumab) (serially diluted 3-fold from an initial concentration of 10 μg/mL) at room temperature for 30 min, and then a fluorescent secondary antibody (PE-anti human IgG) was added to detect the binding of the chimeric antibodies to the huCTLA-4-expressing cells.
In general terms: Flow cytometry measures light scatter and fluorescence of single cells or particles in a stream.

The next assay concerns the target T2, huCTLA-4 ECD (his-tag) (human, UniProt P16410 37-162).
T2 construct: also called HX1 hCTLA4 his; HX1 huCTLA4 his; not shown: his-tag
T2 sequence: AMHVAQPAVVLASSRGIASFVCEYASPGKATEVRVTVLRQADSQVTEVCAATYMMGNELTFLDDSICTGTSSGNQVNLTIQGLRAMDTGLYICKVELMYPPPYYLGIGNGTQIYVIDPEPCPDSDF
The assay is described as follows: ELISA: huCTLA-4 his coated at 1.0 µg/mL, antibody 2.5-fold dilutions from 1000 ng/mL, HRP goat anti-human IgG (Fc), OD 450 nm; unit from the axis 'Log ng/mL'. How it is done: HX1 hCTLA4 his was diluted with PBS (Hyclone) to 1.0 μg/mL, and the dilution was added to a microplate at 100 μL/well. The plate was let stand in an incubator at 37° C. and coated for 90 min and then washed, and 2% BSA was added to the plate at 200 μL/well. The plate was incubated in an incubator at 37° C. for 90 min and then washed. The chimeric antibodies in Table 3 and the control antibody (ipilimumab) were diluted with a diluent (2% BSA) to 1000 ng/mL. The dilution performed each time was not higher than 10-fold. Then, the chimeric antibodies and the control antibody were serially diluted 2.5-fold on a sample dilution plate. All the chimeric antibody solutions and the control antibody solution were added to a microplate at 100 μL/well. The plate was incubated in an incubator at 37° C. for 60 min and then washed. A horseradish peroxidase (HRP)-conjugated goat anti-human antibody IgG (Sigma, Catalog No. A0170) (Fc specific) was diluted 5000-fold with 2% BSA, and the dilution was added to the microplate at 100 μL/well. The plate was incubated in an incubator at 37° C. for 60 min and then washed. The color development solution TMB was added at 100 μL/well, during which bubbles were avoided. […] Reading (wavelength: 450/620 nm) was done within 10 min using a microplate reader.
For orientation: In an ELISA, binding on a coated surface is turned into a signal by an enzyme label.

In a further assay the target is T3, huCTLA4 N-his K29A (human, UniProt P16410 37-162).
T3 construct: … changed to …; not shown: N-terminal his-tag
Kind of assay: ELISA: antigen coated at 1.0 µg/mL, huJS007-47 2.5-fold dilutions from 1000 to 0.042 ng/mL, HRP goat anti-human IgG (Fc), OD 450-620 nm; unit from the axis 'Log:ng/mL'. How it is done: (§1) The huCTLA-4 mutants used in the ELISA assays included non-mutated HXT huCTLA4 his, and mutated huCTLA4 N-his P27A, huCTLA4 N-his G28A, huCTLA4 N-his K29A and huCTLA4 N-his T31A. HuCTLA-4 his and its mutants were diluted with PBS (Hyclone) to 1.0 μg/mL, and a plate was coated with the dilution, incubated in an incubator at 37° C. for 90 min, washed and then blocked with 2% BSA. After the plate was washed, the monoclonal antibody huJS007-47 (serially diluted 2.5-fold with 2% BSA from 1000 ng/mL to 0.042 ng/mL) was added. The plate was incubated at 37° C. for 60 min and washed. A 1:5000 diluted HRP-conjugated goat anti-human antibody IgG (Fc specific) (Sigma, Catalog No. A0170) was used for detection. The plate was incubated at 37° C. for 60 min and then incubated with HRP substrate TMB (Sigma, Catalog No. T2885) at 37° C. for 15 min for color development. Finally, 2 M of hydrochloric acid was added to terminate the color development; during the addition, bubbles were avoided. Reading (wavelength: 450/620 nm) was done within 10 min using a microplate reader.

For a further assay, the target named is T4, huCTLA4 N-his P27A (human, UniProt P16410 37-162).
T4 construct: … changed to …; not shown: N-terminal his-tag
The description is as above. How it is done:
as §1

In assay [2] the target is T5, HXT huCTLA4 his (non-mutated) (human, UniProt P16410 37-162).
T5 construct: not shown: his-tag
T5 sequence: T2 sequence
Described as above. How it is done: as §1

Another assay concerns the target hCTLA4 Nhis T31A. The assay is described as above. The method, then:
as §1

A further assay concerns the target T6, huCTLA4 N-his G28A (human, UniProt P16410 37-162).
T6 construct: … changed to …; not shown: N-terminal his-tag
Kind of assay: ELISA: huCTLA4 N-his G28A coated at 1.0 µg/mL, huJS007-47 2.5-fold dilutions from 1000 to 0.042 ng/mL, HRP goat anti-human IgG (Fc), OD 450-620 nm. The method, then:
as §1

B1: JS007-1 (antibody, V domains shown)
VH: DVQLQESGQGLVKPSQSLSLTCSVTGYSITSGYYWNWIRQFPGNKLEWLGYIGYDGSNYYNPSLKNRISITRDTSKNQFFLKLNSVTSEDTATYFCARNYYSGYFDFWGQGTTLTVSS
VL: DIVMTQSQKFMSTSVGDRVSVTCKASQIVGSYVAWYQQKLGQSPKALIYSTSYRHSGVPDRFTGSGSGTDFTLTISNVQSEDLAEYFCQQHHLPLTFGAGTKLEIK
notes: also called chimeric antibody JS007-1 (1A5.1 VH with 1A5.1 VL)
For the molecule B1, the 50% effective concentration (EC50) is 0.00418 mg/L in assay [1] and roughly 788 mg/L with huCTLA-4 ECD (his-tag).

B2: huJS007-47 (antibody, human IgG1, kappa, V domains shown)
VH: QVQLQESGPGLVKPSQTLSLTCTVSAYSITSGYYWNWIRQHPGKGLEWIGYIGYDGSNNYNPSLKSRVTISRDTSKNQFSLKLSSVTAADTAVYYCARDYYSGYFDSWGQGTTLTVSS
VL: DIQMTQSPSSLSASVGDRVTITCRASQNVGTYVAWYQQKPGKVPKPLIYSTSYRYSGVPSRFSGSGSGTDFTLTISSLQPEDVATYFCHQYDTYPLTFGAGTKLELKR
notes: also called JS007 antibody; monoclonal antibody huJS007-47
B2: the EC50 in the assay with huCTLA4 N-his K29A came to 0.0467 mg/L; in the assay with huCTLA4 N-his P27A, 0.0333 mg/L; in assay [2], 0.0136 mg/L; with hCTLA4 Nhis T31A it was 0.0136 mg/L. For the same molecule, the binding result in the assay with huCTLA4 N-his G28A is “no binding (tested: 1000 ng/mL (log 3))”.

B3: JS007-11 (antibody, V domains shown)
VH: EVQLQQSGAELVKSGASVKLSCTGSGFNIKDTYMHWVKQRPEEGLEWIGRIDPANGNTKSDPKFQGKATITADTSSNTAYLQLSSLTSVDTAVYYCARSMTTDPFTYWGQGTLVTVSS
VL: DIVMTQSQKFMSTSVGDSVSVTCKASQNVGTYVAWYQQKPGQSPKPLIYSTSYRYSGVPDRFTGSGSGTDFTLTISNVQSEDLAEYFCHQYDTYPLTFGAGTKLELK
notes: also called chimeric antibody JS007-11 (4B7.1-1 VH with 4B7.1-1 VL)
In turn, B3 displayed an EC50 in the assay with huCTLA-4 ECD (his-tag) of roughly 4010 mg/L.
